Laboratory results: article PMC10080908
Several values for one entry are separate records, joined by “and”; a condition that tells them apart may be missing. Equal values may be shown once.

Key:
UBXN7-WT (human) [1] = molecular target: UBXN7-WT (human) (UniProt O94888); assay: ITC; VP-ITC; 200 µM RNF111 RING domain injected (20 x 10 µl) into 10 µM UBXN7-WT or UBXN7-UAS, or into 15 µM UBXN7-∆UAS, in the cell; 25 °C; phosphate-buffered saline pH 7.4, 1 mM TCEP; single binding site model
UBXN7-WT (human) [2] = molecular target: UBXN7-WT (human) (UniProt O94888); assay: ITC; VP-ITC, 25 °C, PBS pH 7.4 with 1 mM TCEP; 200 µM RNF111 RING domain injected (20 x 10 µl) into 10 µM UBXN7-WT or UBXN7-UAS or 15 µM UBXN7-∆UAS; single binding site model
[3] = molecular target: UBXN7-UAS recombinant protein (human) (UniProt O94888); assay: as above
UBXN7-UAS recombinant protein (human), sequence (O94888 94-284): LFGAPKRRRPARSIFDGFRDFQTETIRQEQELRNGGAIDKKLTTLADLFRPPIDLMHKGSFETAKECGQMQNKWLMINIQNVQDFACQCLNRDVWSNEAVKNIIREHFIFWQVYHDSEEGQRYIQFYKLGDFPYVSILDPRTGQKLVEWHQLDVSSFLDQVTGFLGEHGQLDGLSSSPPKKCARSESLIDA

UBXN7-WT (human), sequence (O94888 whole entry, the tested form may be a part): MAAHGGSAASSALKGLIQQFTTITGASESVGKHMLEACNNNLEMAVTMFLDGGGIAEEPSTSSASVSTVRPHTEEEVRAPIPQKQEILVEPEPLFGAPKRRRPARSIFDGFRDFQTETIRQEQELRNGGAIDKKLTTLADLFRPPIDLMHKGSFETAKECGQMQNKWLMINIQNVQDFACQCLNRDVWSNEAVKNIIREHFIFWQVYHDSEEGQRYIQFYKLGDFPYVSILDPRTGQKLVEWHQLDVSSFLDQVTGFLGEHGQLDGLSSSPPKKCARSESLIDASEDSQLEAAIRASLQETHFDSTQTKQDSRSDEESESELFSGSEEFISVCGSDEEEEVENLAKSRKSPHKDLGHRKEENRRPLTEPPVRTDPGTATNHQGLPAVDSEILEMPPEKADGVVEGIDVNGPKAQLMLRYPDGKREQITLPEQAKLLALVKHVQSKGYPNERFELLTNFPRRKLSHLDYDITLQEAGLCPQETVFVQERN

Kd (UBXN7-WT (human) [1])	stoichiometry N (UBXN7-WT (human) [1])	Kd (UBXN7-WT (human) [1]; mean) [µM]	stoichiometry N (UBXN7-WT (human) [1]; mean)	Kd (UBXN7-WT (human) [2]) [µM]	stoichiometry N (UBXN7-WT (human) [2])	Kd [3] [µM]	stoichiometry N [3]	Substance
2.49 µM and 2.26 µM	0.928 and 1.11	2.37	1.02					RNF111 RING domain (RNF111-RING, aa 895 to Cter) (domain or fragment)
				2.3	1	0.9	1	RNF111-RING recombinant protein (domain or fragment)
